The assay has as its target Nluc-NS2B (49-66) (named as Nluc-E66stop) (firefly; Dengue virus serotype 2 (DENV2)) [luciferase: P08659].

Nluc-NS2B (49-66) (named as Nluc-E66stop) (firefly; Dengue virus serotype 2 (DENV2)) [luciferase: P08659], sequence (P08659 whole entry): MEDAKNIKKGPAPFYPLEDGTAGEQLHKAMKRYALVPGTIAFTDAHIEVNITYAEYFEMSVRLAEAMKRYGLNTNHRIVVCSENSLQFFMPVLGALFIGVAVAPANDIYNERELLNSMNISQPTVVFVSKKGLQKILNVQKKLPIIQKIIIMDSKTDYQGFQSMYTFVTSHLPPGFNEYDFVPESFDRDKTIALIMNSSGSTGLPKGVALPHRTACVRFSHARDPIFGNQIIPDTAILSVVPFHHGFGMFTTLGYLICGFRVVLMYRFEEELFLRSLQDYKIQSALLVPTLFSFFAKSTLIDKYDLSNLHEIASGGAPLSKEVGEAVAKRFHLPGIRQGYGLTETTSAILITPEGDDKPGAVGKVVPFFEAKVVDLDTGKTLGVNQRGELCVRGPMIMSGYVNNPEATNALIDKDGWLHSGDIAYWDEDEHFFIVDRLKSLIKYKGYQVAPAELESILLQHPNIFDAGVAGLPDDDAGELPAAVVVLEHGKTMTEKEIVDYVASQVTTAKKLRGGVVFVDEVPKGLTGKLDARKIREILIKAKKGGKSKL

Consider “His-tagged maltose-binding protein (MBP) fused to DENV2 NS3 protein (His-MBP-NS3) (from UniProt P14337 1476-1654) (enzyme)”, for which the affinity is 2.5 µM.

The values are drawn from patent US20190160028A1.
